Reference: patent US20050278809A1 (HER MAJESTY THE QUEEN IN RIGHT OF CANADA AS REPRESENTED BY …, published 2005)
Each block holds one binder with its values, some of them ahead of it.

Key:
Experiment in all cases: GST pulldown, [35S]Met-labelled in vitro translated protein
[1] = target: T1, GST-HDA19 fusion protein (recombinant Arabidopsis thaliana HDA19 fused to glutathione S-transferase) (Arabidopsis thaliana, UniProt O22446 1-501)
T1 construct: Expressed in E. coli BL21-CodonPlus (DE3)-RP from pGEX-6P-2 (SalI/NotI) and purified under non-denaturing conditions; also called recombinant HDA19; not shown: glutathione S-transferase (GST) encoded by vector pGEX-6P-2 (Amersham Pharmacia)
T1 sequence (looked up): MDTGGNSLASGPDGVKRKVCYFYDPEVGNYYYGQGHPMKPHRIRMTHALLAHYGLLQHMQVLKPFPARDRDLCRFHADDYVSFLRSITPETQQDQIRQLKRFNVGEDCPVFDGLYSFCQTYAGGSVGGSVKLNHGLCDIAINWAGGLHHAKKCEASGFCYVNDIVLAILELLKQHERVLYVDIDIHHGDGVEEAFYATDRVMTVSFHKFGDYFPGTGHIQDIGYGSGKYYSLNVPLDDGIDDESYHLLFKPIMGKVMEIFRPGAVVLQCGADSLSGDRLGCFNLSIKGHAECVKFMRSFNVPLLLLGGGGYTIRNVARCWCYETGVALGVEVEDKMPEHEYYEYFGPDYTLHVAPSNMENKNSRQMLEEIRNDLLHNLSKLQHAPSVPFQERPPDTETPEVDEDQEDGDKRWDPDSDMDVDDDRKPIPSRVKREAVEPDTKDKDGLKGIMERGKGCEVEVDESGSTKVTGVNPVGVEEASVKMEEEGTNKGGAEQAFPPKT

[2] = target: T2, GST-Gcn5 fusion protein (recombinant Arabidopsis HAT Gcn5 fused to glutathione S-transferase) (Arabidopsis, UniProt Q9AR19 1-568)
T2 construct: Expressed in E. coli from pGEX-6P-2 (SalI/NotI); also called GCN5 (HAT); histone acetyltransferase (HAT); not shown: glutathione S-transferase (GST) encoded by vector pGEX-6P-2 (Amersham Pharmacia)
T2 sequence (looked up): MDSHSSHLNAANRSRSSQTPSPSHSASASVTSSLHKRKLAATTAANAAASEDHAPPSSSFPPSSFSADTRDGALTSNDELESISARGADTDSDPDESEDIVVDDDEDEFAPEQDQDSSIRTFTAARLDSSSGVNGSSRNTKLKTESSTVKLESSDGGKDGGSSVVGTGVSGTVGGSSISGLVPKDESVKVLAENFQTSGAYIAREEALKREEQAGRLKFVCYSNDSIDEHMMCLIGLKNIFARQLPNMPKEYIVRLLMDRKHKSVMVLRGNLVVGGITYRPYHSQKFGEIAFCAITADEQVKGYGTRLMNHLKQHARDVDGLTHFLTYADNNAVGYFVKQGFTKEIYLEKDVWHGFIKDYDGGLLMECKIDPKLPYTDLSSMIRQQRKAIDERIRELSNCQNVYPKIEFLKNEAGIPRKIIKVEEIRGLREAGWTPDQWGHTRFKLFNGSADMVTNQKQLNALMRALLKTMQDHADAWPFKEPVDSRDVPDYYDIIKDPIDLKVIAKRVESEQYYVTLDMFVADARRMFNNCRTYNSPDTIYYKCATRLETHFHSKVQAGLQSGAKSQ

[3] = target: T3, GST alone (negative control) (UniProt P08515 1-218 = GST)
T3 construct: Negative control in the GST pulldown assays (6 µg per reaction)
T3 sequence (P08515 whole entry): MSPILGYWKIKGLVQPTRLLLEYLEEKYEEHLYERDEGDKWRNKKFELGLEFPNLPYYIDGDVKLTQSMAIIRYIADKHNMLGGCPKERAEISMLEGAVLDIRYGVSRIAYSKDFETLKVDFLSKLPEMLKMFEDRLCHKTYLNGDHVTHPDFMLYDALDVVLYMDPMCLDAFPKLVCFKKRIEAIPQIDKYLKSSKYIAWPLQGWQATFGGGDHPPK

binding result [3]: no binding
B3: bnKCP1 (B. napus KID-containing protein 1), full-length, in vitro translated (other)
chain: MAGGGPTFSIELSAYGSDLPTDKASGDIPNEEGSGLSRVGSGIWSGRTVDYSSESSSSIGTPGDSEEEDEESEEDNDEEELGLASLRSLEDSLPSKGLSSHYKGKSKSFGNLGEIGSVKEVPKQENPLNKKRRLQIYNKLARKSFYSWQNPKSMPLLPVHEDNDDEEGDDGDLSDEERGGDVLARRPSFKNRALKSMSCFALSDLQEEEEEEEDE
modifications: labeled with [^35S]methionine
notes: Produced by TNT-Quick coupled in vitro transcription/translation from pET-28b (HindIII/XhoI); also called wild type bnKCP1; pET-28b bnKCP1

binding result [1]: no binding
B4: ΔBnSCL1^1-145, in vitro translated (other, not shown: small tags and cut ends)
chain: MDEHAMRSMDWDSIMKELEVDDDSAPYQLQPSSFNLPVFPDIDSSDVYPGPNQITGYGFNSLDSVDNGGFDYIEDLIRVVDCIESDELHLAHVVLSQLNQRLQTSAGRPLQRAAFYFKEALGSLLTGTNRNQLFSWSDIVQKIRA
modifications: labeled with [^35S]methionine
notes: C-terminal truncation lacking the VHIID motif

binding result [1]: no binding | binding result [2]: no binding
B5: ΔbnKCP1^1-160 (residues 1-160), in vitro translated (other)
chain: MAGGGPTFSIELSAYGSDLPTDKASGDIPNEEGSGLSRVGSGIWSGRTVDYSSESSSSIGTPGDSEEEDEESEEDNDEEELGLASLRSLEDSLPSKGLSSHYKGKSKSFGNLGEIGSVKEVPKQENPLNKKRRLQIYNKLARKSFYSWQNPKSMPLLPVH
modifications: labeled with [^35S]methionine
notes: C-terminal truncation lacking the KID domain, translated in vitro from pET-28b; Vector-encoded residues are not described

Continued, binder first:

B1: ΔbnKCP1^1-80 (residues 1-80), in vitro translated (other)
chain: MAGGGPTFSIELSAYGSDLPTDKASGDIPNEEGSGLSRVGSGIWSGRTVDYSSESSSSIGTPGDSEEEDEESEEDNDEEE
modifications: labeled with [^35S]methionine
notes: as for B5
binding result [1]: no binding | binding result [2]: no binding

B2: BnSCL1 (Brassica napus SCARECROW-like protein 1), full-length, in vitro translated (other, not shown: small tags and cut ends)
chain: MDEHAMRSMDWDSIMKELEVDDDSAPYQLQPSSFNLPVFPDIDSSDVYPGPNQITGYGFNSLDSVDNGGFDYIEDLIRVVDCIESDELHLAHVVLSQLNQRLQTSAGRPLQRAAFYFKEALGSLLTGTNRNQLFSWSDIVQKIRAIKEFSGISPIPLFSHFTANQAILDSLSSQSSSPFVHVVDFEIGFGGQYASLMREIAEKSANGGFLRVTAVVAEDCAVETRLVKENLTQFAAEMKIRFQIEFVLMKTFEILSFKAIRFVDGERTVVLISPAIFRRVIGIAEFVNNLGRVSPNVVVFVDSEGCTETAGSGSFRREFVSAFEFYTMVLESLDAAAPPGDLVKKIVETFLLRPKISAAVETAANRRSAGQMTWREMLCAAGMRPVQLSQFADFQAECLLEKAQVRGFHVAKRQGELVLCWHGRALVATSAWRF
modifications: labeled with [^35S]methionine
notes: also called wild type BnSCL1
binding result [3]: no binding
